Results reported in article PMC12828769.

Molecular target: Human Angiotensin-converting enzyme 2 (ACE2) (human)
Test: MST; Monolith NT.115, standard glass capillaries; ACE2 labelled with NT-647 (NHS ester); ACE2 serially diluted across 16 tubes in 10 mM phosphate buffer pH 7.4, mixed 1:1 with RBDs or RBDdopa's, 15 min at RT; 40-60% MST power; apparent KD

Native SARS-CoV-2 RBD (Arg319-Phe541) without any mutation (domain or fragment; other documents disagree on this pair)
Kd: 5.4 µM
